# According to patent US20220396819A1, “METHOD FOR PRODUCING PEPTIDE HAVING PHYSIOLOGICAL ACTIVITY, AND PEPTIDE COMPRISING SHORT LINKER” (priority 2019, published 2022):
# Where two headings read alike, the source gives them in different places. Positions of bridges follow the written chain, without caps; N, C: chain ends. No end group written: not given here.
# T1: EpoR (UniProt P19235 25-508, limits assumed)
# T1 sequence (looked up): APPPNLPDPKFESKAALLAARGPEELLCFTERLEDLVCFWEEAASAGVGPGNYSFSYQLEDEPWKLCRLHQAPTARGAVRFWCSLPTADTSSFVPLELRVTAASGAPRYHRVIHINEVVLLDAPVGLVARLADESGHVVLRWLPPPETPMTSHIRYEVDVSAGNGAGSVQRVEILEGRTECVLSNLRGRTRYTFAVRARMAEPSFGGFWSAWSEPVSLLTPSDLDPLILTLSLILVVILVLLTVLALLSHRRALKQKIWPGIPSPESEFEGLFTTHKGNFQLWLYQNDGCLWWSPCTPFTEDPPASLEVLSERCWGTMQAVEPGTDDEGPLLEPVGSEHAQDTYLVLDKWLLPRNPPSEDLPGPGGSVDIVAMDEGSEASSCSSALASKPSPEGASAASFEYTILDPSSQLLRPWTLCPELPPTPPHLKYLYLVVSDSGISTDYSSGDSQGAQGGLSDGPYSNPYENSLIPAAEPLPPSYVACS
# B1: AET-VEGFR_D2-PAS100 (peptide)
# peptide: AETAGPTWCEDDWYYCWLFGTAAPAAPAPAAPAAPAPAAPAAPAPAAPAAPAPAAPAAPAPAAPAAPAPAAPAAPAPAAPAAPAPAAPAAPAPAAPAAPAPAAPAAPAPAAPAAPAPAAPAVCWEDSWGGEVCWLFGT
# modifications: two disulfide bonds in the molecule
# B2: AET-EPO-PAS22 (peptide)
# peptide: AETGGLYACHMGPMTWVCQPLRGAAPAAPAPAAPAAPAPAAPAAPGGLYACHMGPMTWVCQPLRG
# modifications: disulfide 9-18, 51-60
# B3: AET-EPO-PAS8 (peptide)
# peptide: AETGGLYACHMGPMTWVCQPLRGAAPAAPAPGGLYACHMGPMTWVCQPLRG
# modifications: disulfide 9-18, 37-46
# B4: AET-EPO-PAS22-PAS600 (peptide)
# peptide: AETGGLYACHMGPMTWVCQPLRGAAPAAPAPAAPAAPAPAAPAAPGGLYACHMGPMTWVCQPLRGAAPAAPAPAAPAAPAPAAPAAPAPAAPAAPAPAAPAAPAPAAPAAPAPAAPAAPAPAAPAAPAPAAPAAPAPAAPAAPAPAAPAAPAPAAPAAPAPAAPAAPAPAAPAAPAPAAPAAPAPAAPAAPAPAAPAAPAPAAPAAPAPAAPAAPAPAAPAAPAPAAPAAPAPAAPAAPAPAAPAAPAPAAPAAPAPAAPAAPAPAAPAAPAPAAPAAPAPAAPAAPAPAAPAAPAPAAPAAPAPAAPAAPAPAAPAAPAPAAPAAPAPAAPAAPAPAAPAAPAPAAPAAPAPAAPAAPAPAAPAAPAPAAPAAPAPAAPAAPAPAAPAAPAPAAPAAPAPAAPAAPAPAAPAAPAPAAPAAPAPAAPAAPAPAAPAAPAPAAPAAPAPAAPAAPAPAAPAAPAPAAPAAPAPAAPAAPAPAAPAAPAPAAPAAPAPAAPAAPAPAAPAAPAPAAPAAPAPAAPAAPAPAAPAAPAPAAPAAPAPAAPAAPAPAAPAAPAPAAPAAPAPAAPAAPAPAAPAAPAPAAPAAPAPAAPAAPAPAAPAAPAPAAPAAPAPAAPAAPAPAAPAAPAPAAPAAPAPAAPAAPAPAAPAAPAPAAPAAPAP
# modifications: two disulfide bonds in the molecule
# B5: AET-EPO-PAS22-PAS200 (peptide)
# peptide: AETGGLYACHMGPMTWVCQPLRGAAPAAPAPAAPAAPAPAAPAAPGGLYACHMGPMTWVCQPLRGAAPAAPAPAAPAAPAPAAPAAPAPAAPAAPAPAAPAAPAPAAPAAPAPAAPAAPAPAAPAAPAPAAPAAPAPAAPAAPAPAAPAAPAPAAPAAPAPAAPAAPAPAAPAAPAPAAPAAPAPAAPAAPAPAAPAAPAPAAPAAPAPAAPAAPAPAAPAAPAPAAPAAPAPAAPAAPAPAAPAAPAPAAPAAPAPAAPAAPAP
# modifications: two disulfide bonds in the molecule
# Columns and labels:
# HEL cells [1] = assay: Thrombopoietin-like activity, tyrosine phosphorylation levels in HEL cells (dot blot); assay type: cell-based, human; settings: for increase in tyrosine phosphorylation levels compared with rhTPO: culture supernatant diluted, 20 minutes, rhTPO 10 to 100 ng/mL, FIG. 41
# Description: The thrombopoietin-like activity of the TPO-PAS dimer peptide was evaluated by quantification of tyrosine phosphorylation levels in HEL cells, a human leukemia-derived blood cell line. 200,000 HEL cells were cultured in RPMI 1640 medium without FBS (Thermo Fisher Scientific) for 24 hours and starved. The cells were stimulated for 20 minutes in RPMI 1640 medium supplemented with 10 to 100 ng/mL recombinant human TPO (rhTPO, Peprotech) or a culture supernatant containing AET-TPO1-PAS8, TPO2-PAS8, or AET-TPO2-PAS8 at a predetermined dilution factor. As a negative control, PBS (Mock group) or a supernatant expressing no peptide (Empty group) by using an empty vector was added, and stimulation was performed for 20 minutes. After removing the medium and washing the cells once with PBS, the cells were lysed by adding 100 μL of Lysis buffer 17 (R&D Systems) supplemented with Protease inhibitor cocktail (Nacalai Tesque). The lysate solution was centrifuged at 14,000 G for 5 minutes to obtain the supernatant as lysate.
# APVDF membrane (Immobilon-P membrane 0.45 m, Merck) was treated with methanol for 1 minute and then with ultrapure water for 5 minutes for hydrophilic treatment. The PVDF membrane was dried, and each cell lysate solution was spotted with a 1 μL pipette and dried. The PVDF membrane was blocked with PVDF Blocking Reagent for Can Get Signal (NOF) at room temperature for 1 hour, and then Can Get Signal Solution 2 (NOF), supplemented with anti-pY antibody-[…] conjugate (Cell Signaling Technology) at 1:5000, was added, followed by an antibody reaction at 4° C. for 24 hours. The membrane was washed 3 times with TBST buffer, Luminata Crescendo Western HRP Substrate (Merck) was added, and a chemiluminescence reaction was carried out. Chemiluminescence was detected using Amersham Imager 600 (GE Healthcare). The luminescence intensity of the detected dots was quantified by ImageJ.
# HEL cells [2] = assay: Signal characteristics, Proteome Profiler Human Phospho-Kinase Array Kit, HEL cells; assay type: cell-based; settings: 100 ng/mL rhTPO or culture supernatant 1/100 to 1/1000, 20 minutes, FIG. 43
# Description: The signal characteristics of the TPO-PAS dimer peptide were evaluated using Proteome Profiler Human Phospho-Kinase Array Kit (R&D Systems).
# 1,000,000 HEL cells were cultured in RPMI 1640 medium without FBS (Thermo Fisher Scientific) for 24 hours and starved. The cells were stimulated for 20 minutes in RPMI 1640 medium supplemented with 100 ng/mL recombinant human TPO (rhTPO, Peprotech) or a culture supernatant containing TPO2-PAS8 at a dilution of 1/100 to 1/1000. As a negative control, PBS was added, and stimulation was performed for 20 minutes (Mock group). After removing the medium and washing the cells once with PBS, the cells were lysed by adding 200 μL of Lysis buffer 17 (R&D Systems) supplemented with Protease inhibitor cocktail (Nacalai Tesque). The lysate solution was centrifuged at 14,000 G for 5 minutes to obtain the supernatant as lysate.
# The lysate was analyzed using Proteome Profiler Human Phospho-Kinase Array Kit. Amersham Imager 600 (GE Healthcare) was used to detect chemiluminescence. The chemiluminescence intensity of the dots was quantified using ImageJ. […] The signal pathway stimulated by rhTPO is mainly the JAK2/Stat3,5 pathway, and all of the proteins with increased phosphorylation levels are included in the pathway.
# Met (HGF receptor) = Met (HGF receptor) (UniProt P08581); assay: cell-based or functional assay
# VEGFR [3] = biological target: T2, VEGFR (Homo sapiens, UniProt P35968); assay: VEGF inhibitory ability, luciferase assay in VEGFR/NFAT Reporter HEK293 cells; assay type: cell-based; settings: Example 46, culture supernatant, 10 ng/mL VEGF, 4 hours, Table 8
# T2 construct: host or cells: VEGFR/NFAT Reporter HEK293 cells
# Description: The VEGF inhibitory ability of the VEGFR_D2-PAS heterodimer peptide was evaluated by luciferase assay. 40,000 cell/well VEGFR/NFAT Reporter HEK293 cells (BPS Bioscience) were seeded and incubated overnight in a 5% CO2 incubator at 37° C. The cells were incubated overnight in Assay medium (MEM medium (Nacalai Tesque), 1×MEM Non-Essential Amino Acids Solution (Thermo Fisher Scientific), 1 mM Sodium Pyruvate (Nacalai Tesque), 1% Penicillin-Streptomycin (Sigma Aldrich), and 0.3% FBS (Thermo Fisher Scientific)) to starvation. […] The cells were stimulated by culturing in a 5% CO2 incubator at 37° C. for 4 hours.
# One-Glo Luciferase Assay System (Promega) was used to detect the signal intensity. Medium supernatant in an amount of 50 μL was removed, 50 μL of One-Glo reagent was added, and the cells were lysed for 10 minutes at room temperature. The luminescence emitted from the cell lysate solution was detected with a Nivo plate reader (Perkin Elmer) to quantify the activation of the VEGFR-NFAT pathway, and the relative signal activity value for the sample without addition of evaluation compound was determined and used as relative receptor activity.
# The VEGF inhibitory ability of the cell-free expressed VEGFR_D2-PAS heterodimer peptide was evaluated by luciferase assay. 40,000 cell/well VEGFR/NFAT Reporter HEK293 cells (BPS Bioscience) were seeded and incubated overnight in a 5% CO2 incubator at 37° C. The cells were incubated overnight in Assay medium (MEM medium (Nacalai Tesque), 1×MEM Non-Essential Amino Acids Solution (Thermo Fisher Scientific), 1 mM Sodium Pyruvate (Nacalai Tesque), 1% Penicillin-Streptomycin (Sigma Aldrich), and 0.3% FBS (Thermo Fisher Scientific)) to starvation. To the Assay medium, 100 μL of 10 ng/mL human recombinant VEGF (R&D Systems) was added, and further, MAET-VEGFR_D2-PAS16, MAET-VEGFR_D2-PAS49-b, MAET-VEGFR_D2-PAS100-b, or a cell-free expression solution containing MAET-VEGFR_D2-GS16, or a cell-free expression solution with unexpressed peptide was added at a predetermined dilution factor, and 100 μL of the Assay medium was added to the cells. The cells were stimulated by culturing in a 5% CO2 incubator at 37° C. for 4 hours.
# The VEGF inhibitory ability of the VEGFR_D2-PAS heterodimer peptide linker variant was evaluated by luciferase assay. 40,000 cell/well VEGFR/NFAT Reporter HEK293 cells (BPS Bioscience) were seeded and incubated overnight in a 5% CO2 incubator at 37° C. The cells were incubated overnight in Assay medium (MEM medium (Nacalai Tesque), 1×MEM Non-Essential Amino Acids Solution (Thermo Fisher Scientific), 1 mM Sodium Pyruvate (Nacalai Tesque), 1% Penicillin-Streptomycin (Sigma Aldrich), and 0.3% FBS (Thermo Fisher Scientific)) to starvation. To the Assay medium, 10 ng/mL human recombinant VEGF (R&D Systems) was added, and further, a culture supernatant containing VEGFR_D2-PAS16, VEGFR_D2-PAS49, or VEGFR_D2-PAS100 at a predetermined concentration was added, and 100 μL of the Assay medium was added to the cells. The cells were stimulated by culturing in a 5% CO2 incubator at 37° C. for 4 hours. Note that VEGFR_D2-PAS16 was obtained according to the method described in Example 27.
# VEGFR [4] = biological target: VEGFR (UniProt P35968 20-1356, limits assumed); assay: cell-based or functional assay
# EpoR [5] = biological target: T1, EpoR; assay: cell-based or functional assay
# EpoR [6] = biological target: T1, EpoR; assay: cell-based or functional assay; remark: listed apart in the source
# VEGFR (UniProt P35968 20-1356, limits assumed), sequence (P35968 20-1356 limits assumed): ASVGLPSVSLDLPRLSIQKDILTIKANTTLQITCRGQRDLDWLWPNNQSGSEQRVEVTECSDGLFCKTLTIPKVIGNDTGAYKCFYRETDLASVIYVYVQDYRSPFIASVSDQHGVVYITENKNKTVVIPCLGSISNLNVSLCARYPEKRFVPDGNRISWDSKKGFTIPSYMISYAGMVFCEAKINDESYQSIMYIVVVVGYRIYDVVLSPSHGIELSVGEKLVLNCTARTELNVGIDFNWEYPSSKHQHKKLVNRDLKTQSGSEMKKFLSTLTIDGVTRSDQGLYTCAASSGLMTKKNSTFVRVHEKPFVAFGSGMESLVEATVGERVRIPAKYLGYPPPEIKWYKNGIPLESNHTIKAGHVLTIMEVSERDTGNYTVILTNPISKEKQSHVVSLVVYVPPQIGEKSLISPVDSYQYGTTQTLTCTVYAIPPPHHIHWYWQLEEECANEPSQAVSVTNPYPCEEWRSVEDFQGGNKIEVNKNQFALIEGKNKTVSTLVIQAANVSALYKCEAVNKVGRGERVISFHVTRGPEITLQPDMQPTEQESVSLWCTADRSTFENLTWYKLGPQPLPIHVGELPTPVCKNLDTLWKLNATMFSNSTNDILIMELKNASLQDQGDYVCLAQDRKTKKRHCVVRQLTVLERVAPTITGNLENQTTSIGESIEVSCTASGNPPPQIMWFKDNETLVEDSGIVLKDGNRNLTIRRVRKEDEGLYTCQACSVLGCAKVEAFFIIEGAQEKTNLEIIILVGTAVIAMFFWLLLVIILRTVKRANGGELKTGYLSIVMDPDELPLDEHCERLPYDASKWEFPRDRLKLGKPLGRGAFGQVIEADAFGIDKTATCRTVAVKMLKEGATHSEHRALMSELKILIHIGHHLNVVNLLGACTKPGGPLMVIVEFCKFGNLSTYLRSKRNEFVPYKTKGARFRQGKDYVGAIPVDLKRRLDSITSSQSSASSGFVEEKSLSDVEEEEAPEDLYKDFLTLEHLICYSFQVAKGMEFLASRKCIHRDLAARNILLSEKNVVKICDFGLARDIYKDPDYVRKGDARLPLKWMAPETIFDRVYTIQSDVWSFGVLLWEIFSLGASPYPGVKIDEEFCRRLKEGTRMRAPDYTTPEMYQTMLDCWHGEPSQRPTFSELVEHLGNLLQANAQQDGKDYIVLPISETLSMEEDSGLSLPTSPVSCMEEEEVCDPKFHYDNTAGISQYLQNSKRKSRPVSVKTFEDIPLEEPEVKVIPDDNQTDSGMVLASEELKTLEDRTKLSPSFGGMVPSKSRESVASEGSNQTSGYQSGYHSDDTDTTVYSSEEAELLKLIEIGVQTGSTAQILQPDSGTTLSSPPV
# T2 sequence (P35968 20-1356): as the sequence (P35968 20-1356 limits assumed) above
# Met (HGF receptor), sequence (P08581 25-1390 limits assumed): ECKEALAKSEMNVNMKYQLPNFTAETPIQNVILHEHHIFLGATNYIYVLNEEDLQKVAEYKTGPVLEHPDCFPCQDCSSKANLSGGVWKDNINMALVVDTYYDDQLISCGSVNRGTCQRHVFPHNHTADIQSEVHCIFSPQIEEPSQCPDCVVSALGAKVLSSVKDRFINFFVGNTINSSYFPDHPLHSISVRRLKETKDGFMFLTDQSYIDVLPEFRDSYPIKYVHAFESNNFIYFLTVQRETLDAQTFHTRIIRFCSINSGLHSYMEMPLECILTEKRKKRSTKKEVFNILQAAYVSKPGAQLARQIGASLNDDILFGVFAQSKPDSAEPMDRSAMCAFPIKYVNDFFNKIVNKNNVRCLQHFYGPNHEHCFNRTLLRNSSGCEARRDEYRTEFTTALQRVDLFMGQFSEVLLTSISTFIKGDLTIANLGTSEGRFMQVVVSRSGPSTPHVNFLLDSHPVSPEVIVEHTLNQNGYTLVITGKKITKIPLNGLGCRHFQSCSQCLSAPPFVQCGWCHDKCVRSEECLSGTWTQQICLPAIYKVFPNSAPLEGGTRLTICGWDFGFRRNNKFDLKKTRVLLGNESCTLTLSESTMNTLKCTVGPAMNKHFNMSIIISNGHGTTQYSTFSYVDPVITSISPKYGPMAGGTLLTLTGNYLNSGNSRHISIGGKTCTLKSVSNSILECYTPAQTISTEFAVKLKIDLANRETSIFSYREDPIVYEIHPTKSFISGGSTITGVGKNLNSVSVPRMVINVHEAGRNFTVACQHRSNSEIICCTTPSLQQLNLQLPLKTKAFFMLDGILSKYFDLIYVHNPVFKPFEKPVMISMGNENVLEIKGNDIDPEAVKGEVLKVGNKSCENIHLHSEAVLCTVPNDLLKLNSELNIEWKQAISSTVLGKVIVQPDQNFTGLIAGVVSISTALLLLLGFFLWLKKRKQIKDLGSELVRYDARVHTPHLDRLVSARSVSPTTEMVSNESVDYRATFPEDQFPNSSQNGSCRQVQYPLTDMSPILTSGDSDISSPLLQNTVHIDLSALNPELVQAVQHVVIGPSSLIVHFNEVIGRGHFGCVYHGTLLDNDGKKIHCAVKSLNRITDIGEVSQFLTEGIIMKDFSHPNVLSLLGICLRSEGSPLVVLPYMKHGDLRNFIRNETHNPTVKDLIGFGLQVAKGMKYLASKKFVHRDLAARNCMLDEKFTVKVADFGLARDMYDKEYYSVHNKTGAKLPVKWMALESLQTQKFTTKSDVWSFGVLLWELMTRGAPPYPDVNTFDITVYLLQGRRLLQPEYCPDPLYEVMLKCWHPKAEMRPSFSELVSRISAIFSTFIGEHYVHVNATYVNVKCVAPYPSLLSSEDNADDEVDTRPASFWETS
molecule,measurement,setting,value
"AETGGCADGPTLREWISFCGGAAPAAPAPGGCADGPTLREWISFCGG (disulfide 6-19, 32-45) [AET-TPO2-PAS8]",increase in tyrosine phosphorylation levels compared with rhTPO,HEL cells [1],equal to or higher than that of rhTPO
AETIEGPTLRQWLAARAAAPAAPAPIEGPTLRQWLAARA (AET-TPO1-PAS8),increase in tyrosine phosphorylation levels compared with rhTPO,HEL cells [1],equal to or higher than that of rhTPO
"GGCADGPTLREWISFCGGAAPAAPAPGGCADGPTLREWISFCGG (disulfide 3-16, 29-42) [TPO2-PAS8]",luminescence intensity (HEL cell activation ability) compared with rhTPO,"HEL cells [1]; culture supernatant 1/100 to 1/10000 dilution, FIG. 42",equal to or higher than that of the 100 ng/mL rhTPO stimulation group
same,increase in tyrosine phosphorylation levels compared with rhTPO,HEL cells [1],equal to or higher than that of rhTPO
same,phosphorylation levels of signal proteins compared with PBS (Mock group),HEL cells [2],"increased in phosphorylation levels of Erk, CREB, Stat3, Stat5a, and Stat5b"
recombinant human HGF (from UniProt P14210 32-728) (ligand),rate of wound healing of HuCCT1 cells (33 ng/mL HGF),Met (HGF receptor),1.6 times
B1,IC50,VEGFR [3],86 ng/mL
same,IC50,VEGFR [4],86 ng/mL
GGLYACHMGPMTWVCQPLRG [monomer peptide EMP35],EC50,EpoR [5],110 ng/mL
B2,EC50,EpoR [5],0.34 ng/mL
B3,EC50,EpoR [5],0.19 ng/mL
B4,EC50,EpoR [6],0.32 ng/mL
B5,EC50,EpoR [6],0.85 ng/mL
